US8071348B2, “Protein tyrosine phosphatase substrate-trapping double mutant and uses thereof” (Albert Einstein College of Medicine of Yeshiva University, priority 2002, dated 2011)
[ ]: non-standard residue; d: D form. F2Pmp = N[C@@H](Cc1ccc(C(F)(F)P(=O)(O)O)cc1)C(=O)O

Columns and labels:
[1] = Kinetic constants for PTP1B-catalyzed hydrolysis of pNPP; type: biochemical; details: pNPP as substrate
Description: The catalytic domain of PTP1B (residues 1 to 321) was used for in vitro study. PTP1B mutants, C215S, D181A, and Q262A, were described previously (9, 25, 26). PTP1B double mutants, D181A/C215S and C215S/Q262A, were generated by PCR reactions, according to the standard procedure of the Quick-Change™ site-directed mutagenesis kit (Stratagene), using pT7-7/PTP1B/C215S as a template. PTP1B double mutants, D181A/C215E and D181A/Q262A, were generated by similar PCR procedures, using pT7-7/PTP1B/D181A as a template. The recombinant wild-type and mutant PTP1Bs were expressed in E. coli, and purified to homogeneity as described (25, 27). Protein concentration was determined from absorbance measurement at 280 nm, using an absorbance coefficient of 1.24 for 1 mg/ml PTP1B.
PTP activity was assayed at 25° C. and pH 7.0, in a reaction mixture (0.2 ml) containing pNPP concentrations ranging from 0.2 to 5 Km. The following buffered solution was used for activity measurements: pH 7.0, 50 mM 3,3-dimethylglutarate, 1 mM EDTA; the ionic strength was 0.15 M, as adjusted by addition of NaCl. Initial rate measurements for the enzyme-catalyzed hydrolysis of pNPP were conducted as previously described (26). Michaelis-Menten kinetic parameters were determined from a direct fit of the data to the Michaelis-Menten equation, using the nonlinear regression program, KINETASYST (Intellikinetics, State College, Pa.).

[2] = tested on: EGF receptor; experiment: Substrate protection: EGF receptor tyrosine phosphorylation in COS1 cells expressing PTP1B forms (anti-pTyr Western blot); type: cell-based, Monkey; details: COS1 cell lysates, anti-pTyr immunoblot (FIG. 4)

B1: PTP1B/D181A/Q262A, catalytic domain (residues 1 to 321) (enzyme, human, UniProt P18031 1-321, looked up)
chain: MEMEKEFEQIDKSGSWAAIYQDIRHEASDFPCRVAKLPKNKNRNRYRDVSPFDHSRIKLHQEDNDYINASLIKMEEAQRSYILTQGPLPNTCGHFWEMVWEQKSRGVVMLNRVMEKGSLKCAQYWPQKEEKEMIFEDTNLKLTLISEDIKSYYTVRQLELENLTTQETREILHFHYTTWPAFGVPESPASFLNFLFKVRESGSLSPEHGPVVVHCSAGIGRSGTFCLADTCLLLMDKRKDPSSVDIKKVLLEMRKFRMGLIATADQLRFSYLAVIEGAKFIMGDSSVQDQWKELSHEDLEPPPEHIPPPPRPPKRILEPHN
notes: range 1-321; Used in vitro (ITC, kinetics); also called PTP1B substrate-trapping double mutant
fold decrease in Km relative to D181A [1]: 33 fold
fold decrease in kcat relative to D181A [1]: 11 fold
Km ([1]; 25° C. and pH 7.0): 2.4 ± 0.5 µM
kcat ([1]; 25° C. and pH 7.0): (2.8 ± 0.1) × 10^−3 s^−1
level of pTyr in the EGF receptor / enhancement of EGF receptor phosphorylation [2]: most pronounced
protection of phosphorylated EGF receptors, fold better than D181A [2]: more than 3 fold
